Measurements: PMC8488606, “The citron homology domain as a scaffold for Rho1 signaling” (Proceedings of the National Academy of Sciences of the …, 2021)

What was measured:
[1] = target: T1, Recombinant His6-Rom2 CNH (862-1194), citron homology domain of Aspergillus fumigatus Rom2 (Aspergillus fumigatus, UniProt Q4WUI2 862-1194, biotinylated using the EZLink NHS-Peg4-Biotin reagent (for BLI)); experiment: BLI; biotinylated AfRom2 CNH on super streptavidin (SSA) biosensors, apo AfRho1 (no nucleotide) in solution, Octet Htx; 25 mM Hepes, 150 mM NaCl, 0.5 mM TCEP pH 7.5; six-point series from 1 mM in threefold dilutions; conditions: both partners purified
T1 construct: Rom2 (guanine nucleotide exchange factor of Rho1), Aspergillus fumigatus, UniProt Q4WUI2, CNH domain construct residues 862-1194; Cloned into a noncleavable 6His version of pGEX6P1 with primers P23 and P24, then the C terminus was truncated with primers P19 and P20; The N-terminal end of the tag is read from the printed name 'His6-Rom2 CNH'; also called AfRom2 CNH; AfRom2CNH; source: E. coli BL21 …
T1 sequence (looked up): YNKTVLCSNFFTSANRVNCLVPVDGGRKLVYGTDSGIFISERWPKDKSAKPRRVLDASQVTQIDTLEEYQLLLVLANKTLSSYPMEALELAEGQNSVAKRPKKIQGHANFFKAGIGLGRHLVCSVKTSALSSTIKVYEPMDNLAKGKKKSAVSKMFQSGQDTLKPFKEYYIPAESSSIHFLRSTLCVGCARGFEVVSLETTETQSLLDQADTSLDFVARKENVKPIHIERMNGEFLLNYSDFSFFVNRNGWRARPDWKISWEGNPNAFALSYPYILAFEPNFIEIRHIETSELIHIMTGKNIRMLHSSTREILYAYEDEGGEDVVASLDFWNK

[2] = target: T1, Recombinant His6-Rom2 CNH (862-1194), …; experiment: BLI; biotinylated AfRom2 CNH on super streptavidin (SSA) biosensors, AfRho1 with GDP or GTPγS (saturating nucleotide) in solution, Octet Red 384; 25 mM Hepes, 150 mM NaCl, 0.5 mM TCEP pH 7.5; six-point series from 1 mM in threefold dilutions; conditions: both partners purified

B1: Recombinant AfRho1 (residues 1 to 181) with F25N mutation (enzyme)
chain: not shown
notes: Rho1 GTPase, Aspergillus fumigatus, residues 1 to 181, F25N introduced for protein stability; Expressed from pGEX6P1; GST removed with PreScission protease; Used without nucleotide, with GDP or with GTPγS in BLI; also called apo AfRho1; AfRho1-GDP; source: E. coli BL21 (non-DE3), purified (Glutathione-Sepharose, PreScission cleavage, Superdex 75)
- Kd [1]: 80 µM
- Kd [2]: 200 µM
